Experimental data from article PMC2630536.

Tests used:
[1] = molecular target: fluorescein-EGR-chloromethylketone-labeled thrombin (bovine) (bovine); experiment: other fluorescence titration
TMEGF456 D349N = experiment: SPR
TMEGF456 E357Q = experiment: SPR
TMEGF456 M388L = experiment: SPR
TMEGF456 Y358F = experiment: SPR

Kd [1] | Substance | also measured
49 nM | TMEGF45 D400E (domain or fragment) | 
55 nM | TMEGF45 E357Q (domain or fragment) | 
68 nM | TMEGF45 wild type (domain or fragment) | 

The next lines start with the substance.

Substance | Kd [1] | also measured
TMEGF45 D349N (domain or fragment) | 43 nM | 
TMEGF45 M388L (domain or fragment) | 57 nM | 
thrombin (PPACK-thrombin in the SPR; active thrombin in the protein C activation assay) (enzyme) |  | Kd (TMEGF456 D349N): 4.2 nM; Kd (TMEGF456 E357Q): 5.2 nM; Kd (TMEGF456 M388L): 4.4 nM; Kd (TMEGF456 Y358F): 2.6 nM
